Literature values, collected in patent US20080213253A1, “COMBINATION THERAPY FOR THE TREATMENT OF CANCER” (DYAX CORP., priority 2007, published 2008).

Legend:
Tie1 = Tie1 (Homo sapiens, UniProt P35590); details: statement in words, no data shown
[1] = target: Tie complex (Tie1 and Tie2) (Homo sapiens, UniProt P35590); details: statement in words, no data shown
Chain of Tie complex (Tie1 and Tie2) (P35590 22-1138, one chain of several): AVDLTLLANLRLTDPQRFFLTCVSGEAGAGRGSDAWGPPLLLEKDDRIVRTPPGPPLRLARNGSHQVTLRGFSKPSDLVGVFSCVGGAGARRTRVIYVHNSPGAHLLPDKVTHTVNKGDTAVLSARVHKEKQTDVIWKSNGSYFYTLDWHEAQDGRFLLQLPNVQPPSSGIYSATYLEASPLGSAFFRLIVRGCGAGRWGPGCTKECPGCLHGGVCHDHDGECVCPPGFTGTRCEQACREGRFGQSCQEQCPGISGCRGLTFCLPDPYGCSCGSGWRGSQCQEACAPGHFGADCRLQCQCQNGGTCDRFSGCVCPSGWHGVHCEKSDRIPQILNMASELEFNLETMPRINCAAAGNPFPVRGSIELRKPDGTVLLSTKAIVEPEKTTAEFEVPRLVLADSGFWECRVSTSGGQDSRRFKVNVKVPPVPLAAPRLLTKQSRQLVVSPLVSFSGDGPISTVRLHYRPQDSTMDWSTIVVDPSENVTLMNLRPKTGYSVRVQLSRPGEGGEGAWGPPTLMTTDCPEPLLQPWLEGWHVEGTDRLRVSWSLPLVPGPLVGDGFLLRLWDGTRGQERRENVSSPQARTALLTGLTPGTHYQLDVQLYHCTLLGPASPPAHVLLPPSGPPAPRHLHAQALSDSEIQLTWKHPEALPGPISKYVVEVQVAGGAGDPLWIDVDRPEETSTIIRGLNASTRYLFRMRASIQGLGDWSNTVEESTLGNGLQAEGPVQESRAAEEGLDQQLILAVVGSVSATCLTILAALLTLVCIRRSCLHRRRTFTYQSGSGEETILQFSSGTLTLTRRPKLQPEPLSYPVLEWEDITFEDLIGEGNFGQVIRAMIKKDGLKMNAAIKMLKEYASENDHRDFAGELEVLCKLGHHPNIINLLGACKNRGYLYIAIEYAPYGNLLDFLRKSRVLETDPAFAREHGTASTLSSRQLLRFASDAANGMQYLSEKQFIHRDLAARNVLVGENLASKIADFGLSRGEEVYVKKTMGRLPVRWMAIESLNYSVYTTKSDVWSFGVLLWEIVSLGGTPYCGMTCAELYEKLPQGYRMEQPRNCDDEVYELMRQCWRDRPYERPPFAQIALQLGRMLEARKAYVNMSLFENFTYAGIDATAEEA

Chain of Tie1 (P35590 22-1138): as the sequence (P35590 22-1138, one chain of several) above

B1: M0044-B08: Tie1 ectodomain-binding antibody; variable domains SEQ ID NO:1 and 3 (antibody, V domains shown)
VL: QDIQMTQSPSFLSASVGDRVTISCRASQYISIYLNWYQQRPGEAPKLLINAASSLQSGDPSRFSGSGSGTDFTLTINSLQPDDFATYYCQQYKSYPLTFGEGTKVEIK
VH: EVQLLESGGGLVQPGGSLRLSCAASGFTFSAYGMGWVRQAPGKGLEWVSVISPSGGQTSYADSVKGRFTISRDNSKNTLYLQMNSLRAEDTALYYCAGGDRYGPLHYWGQGTLVTVSS
down modulation of Tie1 from the cell surface (Tie1): down modulation of Tie1 from the cell surface
Tie complex formation [1]: induce Tie complex formation
